Values joined by “and” are separate entries in the source; they are usually repeats but may differ in a detail not shown here. Equal entries are not always repeated.
How the values were obtained:
[1] = biological target: Glu60 (UniProt position 61, EYLAAEVLELA); assay: NMR; details: 303 K; 200 mM (adjusted with NaCl); 20 mM sodium acetate (pH 4.4-5.1), 20 mM MES (pH 5.4-6.5), 20 mM sodium phosphate (pH 6.8-7.9), 20 mM CHES (pH 9.1); folded free H2A-H2B heterodimer
[2] = biological target: Glu90 (UniProt position 91, AIRNDEELNKL); assay: NMR; details: 303 K; 200 mM (adjusted with NaCl); 20 mM sodium acetate (pH 4.4-5.1), 20 mM MES (pH 5.4-6.5), 20 mM sodium phosphate (pH 6.8-7.9), 20 mM CHES (pH 9.1); folded free H2A-H2B heterodimer
[3] = biological target: Glu91 (UniProt position 92, IRNDEELNKLL); assay: NMR; details: 303 K, 200 mM (adjusted with NaCl)
[4] = biological target: Asp89 (UniProt position 90, LAIRNDEELNK); assay: NMR; details: 303 K; 200 mM (adjusted with NaCl); 20 mM acetate pH 4.5, 5.1; 20 mM MES pH 5.6, 6.0, 6.5; 20 mM phosphate pH 6.8, 7.5, 7.9; 20 mM CHES pH 9.1; folded free H2A-H2B heterodimer (150 uM)
[5] = biological target: Glu55 (UniProt position 56, LAAVMEYLAAE); assay: NMR; details: 303 K, 200 mM (adjusted with NaCl)
[6] = biological target: Glu63 (UniProt position 64, AAEVLELAGNA); assay: NMR; details: 303 K; 200 mM (adjusted with NaCl); 20 mM sodium acetate (pH 4.4-5.1), 20 mM MES (pH 5.4-6.5), 20 mM sodium phosphate (pH 6.8-7.9), 20 mM CHES (pH 9.1); folded free H2A-H2B heterodimer
[7] = tested on: His46
[8] = biological target: His79 (UniProt position 80, ASRLAHYNKRS); assay: NMR; details: 303 K; 200 mM (adjusted with NaCl); 20 mM acetate pH 4.4, 5.0; 20 mM MES pH 5.4, 5.8, 6.2; 20 mM phosphate pH 6.8, 7.1, 7.5; folded free H2A-H2B heterodimer (150 uM)
[9] = biological target: His106 (UniProt position 107, GELAKHAVSEG); assay: NMR; details: 303 K; 200 mM (adjusted with NaCl); 20 mM acetate pH 4.4, 5.0; 20 mM MES pH 5.4, 5.8, 6.2; 20 mM phosphate pH 6.8, 7.1, 7.5; folded free H2A-H2B heterodimer (150 uM)
[10] = 20 mM sodium acetate (pH 4.4-5.1), 20 mM MES (pH 5.4-6.5), 20 mM sodium phosphate (pH 6.8-7.9), 20 mM CHES (pH 9.1), folded free H2A-H2B heterodimer

Histone H2A (in the free H2A-H2B heterodimer) (Drosophila melanogaster)
pKa [1]: < 5 | pKa [2]: < 5 | pKa ([3]; 20 mM acetate pH 4.4, 5.0, 20 mM MES pH 5.4, 5.8, 6.2, 20 mM phosphate pH 6.8, 7.1, 7.5, folded free H2A-H2B heterodimer (150 uM)): 4.36 ± 0.06 [3.89–4.79] | pKa [3, 10]: < 5 | pKa [4]: 5.51 ± 0.11 [4.37–6.07] and 5.02 ± 0.28 [4.61–5.61] and 5.3 | pKa ([5]; 20 mM acetate pH 4.5, 5.1, 20 mM MES pH 5.6, 6.0, 6.5, 20 mM phosphate pH 6.8, 7.5, 7.9, 20 mM CHES pH 9.1, folded free H2A-H2B heterodimer (150 uM)): 4.32 ± 0.08 [4.08–4.78] | pKa [5, 10]: < 5 | pKa [6]: < 5

Histone H2B (in the free H2A-H2B heterodimer) (Drosophila melanogaster)
pKa [7]: 5.86 ± 0.03 [5.66–6.06] and 5.64 ± 0.02 [5.54–5.74] and 5.75 ± 0.03 [5.52–5.92] | pKa [8]: 6.7 | pKa [9]: 6.52 ± 0.05 [6.23–6.93]

— publication PMC8626509
